Measurements as given in patent publication US20090280543A1, “REGIOSELECTIVE GLYCOSYLATION” (THE UNIVERSITY OF YORK, priority 2005, published 2009).

B1: GT 74B1: Arabidopsis thaliana glycosyltransferase, SEQ ID NO: 35 (nucleotide), 124 (amino acid) (protein, listed as Arabidopsis thaliana)
chain: MAETTPKVKGHVVILPYPVQGHLNPMVQFAKRLVSKNVKVTIATTTYTASSITTPSLSVEPISDGFDFIPIGIPGFSVDTYSESFKLNGSETLTLLIEKFKSTDSPIDCLIYDSFLPWGLEVARSMELSAASFFTNNLTVCSVLRKFSNGDFPLPADPNSAPFRIRGLPSLSYDELPSFVGRHWLTHPEHGRVLLNQFPNHENADWLFVNGFEGLEETQDCENGESDAMKATLIGPMIPSAYLDDRMEDDKDYGASLLKPISKECMEWLETKQAQSVAFVSFGSFGILFEKQLAEVAIALQESDLNFLWVIKEAHIAKLPEGFVESTKDRALLVSWCNQLEVLAHESIGCFLTHCGWNSTLEGLSLGVPMVGVPQWSDQMNDAKFVEEVWKVGYRAKEEAGEVIVKSEELVRCLKGVMEGESSVKIRESSKKWKDLAVKAMSEGGSSDRSINEFIESLGK
B2: GT 71C4: Arabidopsis thaliana glycosyltransferase, SEQ ID NO: 10 (nucleotide), 110 (amino acid) (protein, listed as Arabidopsis thaliana)
chain: MVKETELIFIPVPSTGHILVHIEFAKRLINLDHRIHTITILNLSSPSSPHASVFARSLIASQPKIRLHDLPPIQDPPPFDLYQRAPEAYIVKLIKKNTPLIKDAVSSIVASRRGGSDSVQVAGLVLDLFCNSLVKDVGNELNLPSYIYLTCNARYLGMMKYIPDRHRKIASEFDLSSGDEELPVPGFINAIPTKFMPPGLFNKEAYEAYVELAPRFADAKGILVNSFTELEPHPFDYFSHLEKFPPVYPVGPILSLKDRASPNEEAVDRDQIVGWLDDQPESSVVFLCFGSRGSVDEPQVKEIARALELVGCRFLWSIRTSGDVETNPNDVLPEGFMGRVAGRGLVCGWAPQVEVLAHKAIGGFVSHCGWNSTLESLWFGVPVATWPMYAEQQLNAFTLVKELGLAVDLRMDYVSSRGGLVTCDEIARAVRSLMDGGDEKRKKVKEMADAARKALMDGGSSSLATARFIAELFEDGSSC
B3: GT 88A1: Arabidopsis thaliana glycosyltransferase, SEQ ID NO: 97 (nucleotide), 133 (amino acid) (protein, listed as Arabidopsis thaliana)
chain: MGEEAIVLYPAPPIGHLVSMVELGKTILSKNPSLSIHIILVPPPYQPESTATYISSVSSSFPSITFHHLPAVTPYSSSSTSRHHHESLLLEILCFSNPSVHRTLFSLSRNFNVRAMIIDFFCTAVLDITADFTFPVYFFYTSGAACLAFSFYLPTIDETTPGKNLKDIPTVHIPGVPPMKGSDMPKAVLERDDEVYDVFIMFGKQLSKSSGIIINTFDALENRAIKAITEELCFRNIYPIGPLIVNGRIEDRNDNKAVSCLNWLDSQPEKSVVFLCFGSLGLFSKEQVIEIAVGLEKSGQRFLWVVRNPPELEKTELDLKSLLPEGFLSRTEDKGMVVKSWAPQVPVLNHKAVGGFVTHCGWNSILEAVCAGVPMVAWPLYAEQRFNRVMIVDEIKIAISMNESETGFVSSTEVEKRVQEIIGECPVRERTMAMKNAAELALTETGSSHTALTTLLQSWSPK
B4: GT 71 D1: Arabidopsis thaliana glycosyltransferase, SEQ ID NO: 12 (nucleotide), 111 (amino acid) (protein, listed as Arabidopsis thaliana)
chain: MRNVELIFIPTPTVGHLVPFLEFARRLIEQDDRIRITILLMKLQGQSHLDTYVKSIASSQPFVRFIDVPELEEKPTLGSTQSVEAYVYDVIERNIPLVRNIVMDILTSLALDGVKVKGLVVDFFCLPMIDVAKDISLPFYVFLTTNSGFLAMMQYLADRHSRDTSVFVRNSEEMLSIPGFVNPVPANVLPSALFVEDGYDAYVKLAILFTKANGILVNSSFDIEPYSVNHFLQEQNYPSVYAVGPIFDLKAQPHPEQDLTRRDELMKWLDDQPEASVVFLCFGSMARLRGSLVKEIAHGLELCQYRFLWSLRKEEVTKDDLPEGFLDRVDGRGMICGWSPQVEILAHKAVGGFVSHCGWNSIVESLWFGVPIVTWPMYAEQQLNAFLMVKELKLAVELKLDYRVHSDEIVNANEIETAIRYVMDTDNNVVRKRVMDISQMIQRATKNGGSSFAAIEKFIYDVIGIKP
B5: GT 72D1: Arabidopsis thaliana glycosyltransferase, SEQ ID NO: 18 (nucleotide), 113 (amino acid) (protein, listed as Arabidopsis thaliana)
chain: MDQPHALLVASPGLGHLIPILELGNRLSSVLNIHVTILAVTSGSSSPTETEAIHAAAARTICQITEIPSVDVDNLVEPDATIFTKMVVKMRAMKPAVRDAVKLMKRKPTVMIVDFLGTELMSVADDVGMTAKYVYVPTHAWFLAVMVYLPVLDTVVEGEYVDIKEPLKIPGCKPVGPKELMETMLDRSGQQYKECVRAGLEVPMSDGVLVNTWEELQGNTLAALREDEELSRVMKVPVYPIGPIVRTNQHVDKPNSIFEWLDEQRERSVVFVCLGSGGTLTFEQTVELALGLELSGQRFVWVLRRPASYLGAISSDDEQVSASLPEGFLDRTRGVGIVVTQWAPQVEILSHRSIGGFLSHCGWSSALESLTKGVPIIAWPLYAEQWMNATLLTEEIGVAVRTSELPSERVIGREEVASLVRKIMAEEDEEGQKIRAKAEEVRVSSERAWSKDGSSYNSLFEWAKRCYLVP
B6: GT 71C2: Arabidopsis thaliana glycosyltransferase, SEQ ID NO: 8 (nucleotide), 109 (amino acid) (protein, listed as Arabidopsis thaliana)
chain: MAKQQEAELIFIPFPIPGHILATIELAKRLISHQPSRIHTITILHWSLPFLPQSDTIAFLKSLIETESRIRLITLPDVQNPPPMELFVKASESYILEYVKKMVPLVRNALSTLLSSRDESDSVHVAGLVLDFFCVPLIDVGNEFNLPSYIFLTCSASFLGMMKYLLERNRETKPELNRSSDEETISVPGFVNSVPVKVLPPGLFTTESYEAWVEMAERFPEAKGILVNSFESLERNAFDYFDRRPDNYPPVYPIGPILCSNDRPNLDLSERDRILKWLDDQPESSVVFLCFGSLKSLAASQIKEIAQALELVGIRFLWSIRTDPKEYASPNEILPDGFMNRVMGLGLVCGWAPQVEILAHKAIGGFVSHCGWNSILESLRFGVPIATWPMYAEQQLNAFTIVKELGLALEMRLDYVSEYGEIVKADEIAGAVRSLMDGEDVPRRKLKEIAEAGKEAVMDGGSSFVAVKRFIDGL

What was measured:
[1] = Removal of aglycones through adsorption by PVPP, analysed by RP-HPLC; type: physicochemical; details: ratio of compounds removed by PVPP over that in the untreated samples
Experimental: FIG. 7: Removal of different aglycones through adsorbtion by PVPP. The removal of a) trans-resveratrol (100%), b) esculetin (70%), c) daidzein (81%), and d) scopoletin (92%) by PVPP was analyzed by RP-HPLC. The efficiency was defined as the ratio of compounds removed by PVPP over that in the untreated samples;
(§1) Reverse-phase HPLC (RP-HPLC): RP-HPLC (Agilent 1100 system with Photodiode Array Detector, Agilent, U.K.) analysis was carried out using a Columbus 5-μ C18 column (150×3.20 mm, Phenomenex, U.K.). Glucosides were separated from their respective aglycones using a linear gradient of acetonitrile/0.1% formic acid (v/v) in H2O: 10-45% (trans-resveratrol/glucosides), 10-50% (daidzein/glucosides) at 0.5 mL/min over 20 min and monitored at 280 nm and 250 nm. Separation of scopoletin/scopolin and esculetin/esculin was carried out using the conditions described previously.^[11]
(§2) Stage 3, detection: 50 μl of the reaction mix were transferred to a 96-well filtration plate (Abgene, U.K.), mixed with an equal volume of PVPP aqueous suspension (25 g/L), shaken for 1 h at 25° C. before centrifugation (1000 g, 5 min). To each filtrate, 50 mM 2-morpholino-ethanesulfonic acid buffer (MES) (pH 7.0), ABTS™ (0.1 mM), peroxidase (2 U) and glucose oxidase (2 U) were added to a final volume of 125 μl. The formation of the green dye was monitored at 405 nm at 30 min using a plate reader (Bio-Tec Instruments Inc., U.S.A).

[2] = Whole-cell biocatalysis screen of GT library against the aglycone trans-resveratrol (RP-HPLC of glucosides); type: cell-based, E. coli; details: 500 µM aglycone, 44 h, 25° C.
Excerpt: FIG. 4: Screening of a GT-library against the aglycone trans-resveratrol. a) The readings at A405 nm for D-glucose detection are presented in a colored code format. b) Examples of RP HPLC trace of active and non active GTs in whole cell biocatalysis are illustrated. c) The regioselectivity of the active GTs towards trans-resveratrol, defined by the percentage of a regiospecific glucoside in the total amount of monoglucosides formed;
as §1
The cDNA library of 96 Arabidopsis thaliana GTs was subcloned into the multiple cloning site of the glutathione-S-transferase (GST) gene fusion vector pGEX-2T (Amersham Biosciences, U.K.) as described previously^[10] and transformed into the strain E. coli BL21 (DE3) for use in the screening method.
Stage 1, biotransformation: single colonies of the GT library grown on LB-agar plates overnight were transferred to individual wells in a 96-well bacterial culture plate containing 400 μl 2×YT medium (16 g/L bacto tryptone, 10 g/L yeast extract, 5 g/L NaCl) and 50 μg/mL ampicillin. The plate was covered with an adhesive plate seal (Abgene, U.K.) and incubated at 37° C. (250 rpm). The bacterial growth was monitored at 595 nm by a plate reader. After 4 h, the cultures had reached exponential phase. The plate was centrifuged (4000 g, 10 min), the supernatants discarded and cell pellets were resuspended in isopropyl-D-thiogalactopyranoside (0.1 mM), 2-(N-morpholino)ethanesulfonic acid (50 mM, pH 7.0), ampicillin (50 μg/mL), L-arabinose (10 g/L) and 500 µM of aglycone to a total whole-cell reaction volume of 400 μl/well. The 96-well plate was closed with a gas permeable adhesive plate seal, wrapped in alu foil for light protection and incubated at 25° C. (250 rpm). After 44 h the cultures were centrifuged (4000 g, 15 min) and the supernatants analyzed.
Stage 2, cleavage: supernatants (100 μl) were transferred to a microtiter plate, 1 μl of β-glucosidase (1 U) was added and the plate incubated for 90 min at 37° C.
as §2
The utility of the screening method and regioselective biocatalysis by the GTs are illustrated in FIGS. 2 and 3. Thirteen GTs recognized daidzein and twenty-five GTs were identified that glycosylated trans-resveratrol. […] The mono- and di-glucosides of daidzein (4-6) and trans-resveratrol (8-10), eluting earlier than the two aglycones under the RP-HPLC conditions used (FIGS. 2b and 3b), were identified using external standards when available, or by electrospray liquid chromatography-mass spectrometry (LC-MS). ^1H-NMR analysis was used to confirm the structure of the monoglucosides (Table 1, SEQ ID NO: 1-107). […] Similarly, regioselective glycosylation of trans-resveratrol was observed. […] Only trace levels of a diglucoside were observed under the reaction conditions used.

Molecule | removal by PVPP (efficiency) [1] | regioselective glycosylation of trans-resveratrol (position) [2]
O=c1c(-c2ccc(O)cc2)coc2cc(O)ccc12 [daidzein] | 81% | –
O=c1ccc2cc(O)c(O)cc2o1 [esculetin] | 70% | –
COc1cc2ccc(=O)oc2cc1O [scopoletin] | 92% | –
Oc1ccc(/C=C/c2cc(O)cc(O)c2)cc1 [trans-resveratrol] | 100% | –
B1 | – | specific for the 4′-OH position
B2 | – | specific for the 3-OH position
B3 | – | specific for the 3-OH position
B4 | – | specific for the 3-OH position
B5 | – | specific for the 3-OH position
B6 | – | specific for the 3-OH position
